Reference: the supplement of paper PMC9732359
± gives the uncertainty stated by the source.

Assay: protein stability index of a GFP-peptide fusion (yeast GPS) (PSI 1-4); higher = more stable; sorted into four equal gates, so the index is relative within each strain
Outline: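 The protein stability index combines read frequencies across sorting gates, each weighted by its gate number and then summed. To obtain those frequencies, a pooled yeast library of GFP fusions to tiled 17-residue yeast protein peptides, on a plasmid also expressing Cherry, was grown to mid-log phase in leucine-free medium. The cells were sorted into four equal gates by GFP/Cherry ratio before plasmid amplification by PCR and Illumina sequencing.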

Row | Sequence | protein stability index (doa10∆) | protein stability index (pdr5∆) | protein stability index (san1∆) | protein stability index (ubr1∆)
1 | GSLTFLDNKGSGEDAEE [YIL149C/MLP2] | 3.48 ± 0.27 | 3.22 ± 0.12 | 3.56 ± 0.12 | 3.46 ± 0.071
2 | CKIDFQKNFMDQFQWIL [RRI2] | – | 1.47 ± 0.092 | 1.55 ± 0.24 | 1.93 ± 0.13
3 | RSDSYMLHKVLENKADP [RPT6] | 2.65 ± 0.1 | 2.99 ± 0.1 | 2.93 ± 0.056 | 2.83 ± 0.091
4 | NYPQLTEDILKEISTRV [YCS4] | – | 3.11 ± 0.17 | – | 3.41 ± 0.13
5 | ICQIISSTITGDVVLAA [RPL5] | 2.84 ± 0.063 | 1.89 ± 0.058 | 2.31 ± 0.069 | 3.06 ± 0.099
6 | DLPETGFFENIETEFLL [IRR1] | 3.13 ± 0.075 | 3.18 ± 0.1 | 3.22 ± 0.047 | 3.13 ± 0.066
7 | AGMTTIVRDLDRPGSKF [RPL3] | 2.39 ± 0.11 | 3.24 ± 0.18 | 2.95 ± 0.08 | 3.15 ± 0.11
8 | HEVVQDDSFSLLRIQML [PCI8] | 2.7 ± 0.049 | 2.96 ± 0.063 | 2.74 ± 0.047 | 2.84 ± 0.036
9 | LKNTKYFQQTTIDWVEA [PRP8] | 2.93 ± 0.078 | 2.96 ± 0.08 | 2.83 ± 0.054 | 2.75 ± 0.072
10 | LNQLDGFETSKNIKIIM [RPT6] | 2.39 ± 0.25 | 2.62 ± 0.22 | 2.74 ± 0.14 | 2.7 ± 0.18
11 | QRIAKNDPEYMDTSDDA [DLS1] | 3.01 ± 0.16 | 3.15 ± 0.12 | 2.82 ± 0.15 | 3.01 ± 0.079
12 | PLPHRVQKSTKTFSYKR [RPL20A] | 2.39 ± 0.058 | 2.93 ± 0.051 | 2.63 ± 0.057 | 2.38 ± 0.043
13 | EGAEPGPPYTTDEHLIF [ISW2] | 2.91 ± 0.043 | 2.99 ± 0.047 | 2.42 ± 0.043 | 2.68 ± 0.037
14 | VVSLKEGMFANANRVFR [SMC2] | 2.84 ± 0.071 | 3.11 ± 0.11 | 3.26 ± 0.06 | 3.18 ± 0.062
15 | MVATVKRTIRIKTQQHI [TAF14] | 1.62 ± 0.09 | 1.95 ± 0.053 | 1.53 ± 0.14 | 1.56 ± 0.09
16 | LLNKNTGNNLYDRNSNN [SWI1] | 2.79 ± 0.065 | 2.85 ± 0.06 | 2.7 ± 0.064 | 2.9 ± 0.038
17 | FEIQGVPPMKLAYSKIV [YMR129W/POM152] | 1.59 ± 0.074 | 2.01 ± 0.063 | 1.53 ± 0.1 | 1.74 ± 0.062
18 | STMTEPVKQSFIRKYIN [GAL11] | 2.56 ± 0.082 | 2.2 ± 0.065 | 1.96 ± 0.092 | 2.47 ± 0.053
19 | TSVENEGPVANLKDYEL [REC8] | 3.38 ± 0.11 | 3.41 ± 0.12 | 3.03 ± 0.13 | 3.16 ± 0.076
20 | CITLDQLAVRAPKGQNT [RPL18A] | – | 3.39 ± 0.2 | 2.94 ± 0.079 | 3.38 ± 0.095
21 | SNDPDVNNTRRRVYNRV [BRN1] | 2.81 ± 0.14 | 3.52 ± 0.19 | 3 ± 0.14 | 3.69 ± 0.24
22 | GSIPVDQVVVRGIDTLQ [RPB3] | 2.14 ± 0.06 | 2.02 ± 0.076 | 1.89 ± 0.099 | 2.5 ± 0.048
23 | EIVSDVKVVDAGNKVGQ [RPP0] | – | 3.59 ± 0.2 | – | –
24 | DPELLRSYIFGGHVSQY [RPL5] | 3.16 ± 0.083 | 3.58 ± 0.13 | 3.33 ± 0.056 | 3.17 ± 0.14
25 | VSLQNFSSSVSLSYMAF [RRP40] | 2.22 ± 0.047 | 1.64 ± 0.041 | 1.76 ± 0.074 | 1.83 ± 0.04
26 | GSRTTTNHVLEVFSVLG [RPO31] | 2.93 ± 0.13 | 2.76 ± 0.14 | – | –

Row | Sequence | protein stability index (doa10∆) | protein stability index (pdr5∆) | protein stability index (san1∆) | protein stability index (ubr1∆)
27 | TQEEVELPLEDFKAKYC [RPB5] | 3.33 ± 0.11 | 3.25 ± 0.11 | 3.58 ± 0.11 | 3.28 ± 0.071
28 | KKKVYTTPKKIKHKHKK [RPS31] | 3.38 ± 0.16 | 2.86 ± 0.2 | – | –
29 | AIRKAPHNSKSLGFLQQ [RPN3] | 2.9 ± 0.082 | 2.7 ± 0.086 | 2.84 ± 0.083 | 2.54 ± 0.13
30 | TLSLPDSQDYILSINAI [SMC1] | 2.85 ± 0.041 | 2.95 ± 0.05 | 2.9 ± 0.04 | 2.87 ± 0.044
31 | EKKAEYFAKLREYLEEY [RPP0] | 3.44 ± 0.092 | 3.31 ± 0.088 | 3.05 ± 0.067 | 3.54 ± 0.099
32 | KEPRLVIVTDPRLDAQA [RPS0B] | 3.41 ± 0.25 | 3.42 ± 0.17 | – | 2.61 ± 0.16
33 | KIADLVRIPPDQFHRDT [RPC25] | 2.18 ± 0.063 | 2.52 ± 0.062 | 2.45 ± 0.085 | 2.93 ± 0.088
34 | LQKVENQTIKEAKDAII [YIL149C/MLP2] | 3.05 ± 0.046 | 3.18 ± 0.047 | 3.04 ± 0.045 | 3.13 ± 0.034
35 | IFEISLQRKDYTSIVQC [YML103C/NUP188] | 1.76 ± 0.051 | 1.75 ± 0.048 | 2.05 ± 0.12 | 1.88 ± 0.052
36 | MKQYRDFLGVASTGSGK [PRP28] | 2.77 ± 0.1 | 2.72 ± 0.12 | 2.88 ± 0.061 | 2.93 ± 0.043
37 | ALVAGIERYPLKVTKKH [RPL27A] | 2.17 ± 0.27 | 2.51 ± 0.12 | 1.87 ± 0.24 | –
38 | QNAADLQQICRVRNKDI [RPL9A] | 2.82 ± 0.088 | 3.3 ± 0.045 | 2.59 ± 0.087 | 2.89 ± 0.06
39 | QLDEFKNKYLKDVLAQT [SWP82] | 2.52 ± 0.12 | 2.52 ± 0.15 | 2.4 ± 0.1 | 2.36 ± 0.057
40 | EEHHEEEPSRVDPEQEA [RPT4] | 3.09 ± 0.082 | 3.28 ± 0.094 | 3.14 ± 0.052 | 3.26 ± 0.064
41 | VLVVRGSKKGQEGKISS [RPL26A] | 3.54 ± 0.085 | 3.19 ± 0.099 | 3.06 ± 0.068 | 3.44 ± 0.084
42 | IKLVKQNDELKFQGVLE [RPC34] | 3.25 ± 0.13 | 3.53 ± 0.12 | 3.37 ± 0.051 | 2.58 ± 0.095
43 | FVLLEIEPVTKVSSLKM [YCS4] | 2.34 ± 0.049 | 2.18 ± 0.066 | 2.48 ± 0.059 | 2.35 ± 0.054
44 | NLDGTKAVKLRKSYKNQ [ROX3] | 3.43 ± 0.1 | 3.36 ± 0.096 | 3.39 ± 0.067 | 3.58 ± 0.046
45 | EAFIASGITDPYEMYKY [FAS2] | 1.81 ± 0.038 | 2.06 ± 0.05 | 1.73 ± 0.068 | 2.14 ± 0.045
46 | EWVKLHRLLQRALFRQL [RMP1] | 1.47 ± 0.25 | 1.58 ± 0.21 | 2.86 ± 0.14 | 2.16 ± 0.14
47 | FKQSNSETFLQFYVKRW [CDC53] | 2.93 ± 0.13 | 2.96 ± 0.071 | 2.96 ± 0.097 | 2.76 ± 0.1
48 | ENHNKGKLWKDVKARIA [QCR9] | 2.77 ± 0.14 | 3.07 ± 0.19 | 3 ± 0.13 | 2.83 ± 0.12
49 | VENLTVAQECIAFLKKQ [SMC1] | 2.12 ± 0.065 | 2.47 ± 0.07 | 2.42 ± 0.086 | 1.98 ± 0.051
50 | PEKEASSATIVLCLTRS [YCG1] | 2.03 ± 0.06 | 2.5 ± 0.061 | 2.1 ± 0.056 | 2.24 ± 0.046
51 | VIFVERATPATLTELKD [SRB2] | 2.84 ± 0.091 | 2.02 ± 0.063 | 2.4 ± 0.12 | 3.23 ± 0.098
